Measured values reported in the supplement of paper PMC10567573.

B1: FBXO34 (parent)
chain: ASSVESTLPVLEASSWKKQVSHDF

Variants of: B1
Assay: protein stability index of a GFP-peptide fusion (GPS, HEK-293T) (PSI 1-6); higher = more stable
Settings: c terminus: a fixed tail appended
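Note: lentivirally expressed fusions sorted by FACS into six bins by GFP to DsRed ratio, PSI derived from sequencing read proportions per bin multiplied by bin number.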

Going from ASTVESTLPVLEASSWKKQVSHDF to ASVVESTLPVLEASSWKKQVSHDF, the protein stability index falls from 3.22 to 2.49.

First: ASWVESTLPVLEASSWKKQVSHDF
Second: ASYVESTLPVLEASSWKKQVSHDF
The protein stability index of the first is lower: 2.02 for the first, 2.46 for the second.

Compared with ASSAESTLPVLEASSWKKQVSHDF, ASSCESTLPVLEASSWKKQVSHDF is lower in protein stability index: 3.39 for the first, 2.45 for the second.

Compared with ASSDESTLPVLEASSWKKQVSHDF, ASSEESTLPVLEASSWKKQVSHDF is higher in protein stability index: 2.4 for the first, 3.67 for the second.

Compared with ASSFESTLPVLEASSWKKQVSHDF, ASSGESTLPVLEASSWKKQVSHDF is higher in protein stability index: 2.1 for the first, 3.15 for the second.

Going from ASSHESTLPVLEASSWKKQVSHDF to ASSIESTLPVLEASSWKKQVSHDF, the protein stability index falls from 3.39 to 2.75.

Going from ASSMESTLPVLEASSWKKQVSHDF to ASSPESTLPVLEASSWKKQVSHDF, the protein stability index rises from 2.51 to 2.77.

Compared with ASSQESTLPVLEASSWKKQVSHDF, ASSRESTLPVLEASSWKKQVSHDF is lower in protein stability index: 3.53 for the first, 2.64 for the second.

Going from ASSSESTLPVLEASSWKKQVSHDF to ASSTESTLPVLEASSWKKQVSHDF, the protein stability index falls from 3.01 to 2.88.

Compared with ASSWESTLPVLEASSWKKQVSHDF, ASSYESTLPVLEASSWKKQVSHDF is lower in protein stability index: 2.5 for the first, 2.46 for the second.

Going from ASSVASTLPVLEASSWKKQVSHDF to ASSVCSTLPVLEASSWKKQVSHDF, the protein stability index falls from 2.68 to 2.38.

First: ASSVDSTLPVLEASSWKKQVSHDF
Second: ASSVFSTLPVLEASSWKKQVSHDF
The protein stability index of the first is higher: 3.22 for the first, 1.77 for the second.

Compared with ASSVGSTLPVLEASSWKKQVSHDF, ASSVHSTLPVLEASSWKKQVSHDF is lower in protein stability index: 2.61 for the first, 2.4 for the second.

First: ASSVISTLPVLEASSWKKQVSHDF
Second: ASSVKSTLPVLEASSWKKQVSHDF
The protein stability index of the first is lower: 2.17 for the first, 2.48 for the second.

Going from ASSVLSTLPVLEASSWKKQVSHDF to ASSVMSTLPVLEASSWKKQVSHDF, the protein stability index falls from 2.9 to 2.84.

Going from ASSVNSTLPVLEASSWKKQVSHDF to ASSVQSTLPVLEASSWKKQVSHDF, the protein stability index rises from 2.28 to 2.51.

First: ASSVSSTLPVLEASSWKKQVSHDF
Second: ASSVVSTLPVLEASSWKKQVSHDF
The protein stability index of the first is higher: 3.21 for the first, 2.9 for the second.

Going from ASSVWSTLPVLEASSWKKQVSHDF to ASSVYSTLPVLEASSWKKQVSHDF, the protein stability index falls from 2.03 to 1.9.

First: ASSVEATLPVLEASSWKKQVSHDF
Second: ASSVECTLPVLEASSWKKQVSHDF
The protein stability index of the first is higher: 3.41 for the first, 2.56 for the second.

Going from ASSVEDTLPVLEASSWKKQVSHDF to ASSVEFTLPVLEASSWKKQVSHDF, the protein stability index falls from 2.46 to 1.76.

First: ASSVEHTLPVLEASSWKKQVSHDF
Second: ASSVEITLPVLEASSWKKQVSHDF
The protein stability index of the first is higher: 2.42 for the first, 1.7 for the second.

First: ASSVEKTLPVLEASSWKKQVSHDF
Second: ASSVELTLPVLEASSWKKQVSHDF
The protein stability index of the first is lower: 2.76 for the first, 3.18 for the second.

Going from ASSVEMTLPVLEASSWKKQVSHDF to ASSVENTLPVLEASSWKKQVSHDF, the protein stability index rises from 2.36 to 3.83.

Going from ASSVEPTLPVLEASSWKKQVSHDF to ASSVERTLPVLEASSWKKQVSHDF, the protein stability index falls from 2.96 to 2.43.

Compared with ASSVETTLPVLEASSWKKQVSHDF, ASSVEWTLPVLEASSWKKQVSHDF is lower in protein stability index: 3.06 for the first, 3.02 for the second.

Compared with ASSVEYTLPVLEASSWKKQVSHDF, ASSVESALPVLEASSWKKQVSHDF is higher in protein stability index: 2.48 for the first, 2.9 for the second.

Compared with ASSVESCLPVLEASSWKKQVSHDF, ASSVESDLPVLEASSWKKQVSHDF is higher in protein stability index: 3.31 for the first, 3.63 for the second.

Going from ASSVESELPVLEASSWKKQVSHDF to ASSVESFLPVLEASSWKKQVSHDF, the protein stability index rises from 2.88 to 2.92.

Going from ASSVESHLPVLEASSWKKQVSHDF to ASSVESKLPVLEASSWKKQVSHDF, the protein stability index falls from 3.21 to 2.82.

Compared with ASSVESLLPVLEASSWKKQVSHDF, ASSVESMLPVLEASSWKKQVSHDF is higher in protein stability index: 2.42 for the first, 2.48 for the second.

Compared with ASSVESNLPVLEASSWKKQVSHDF, ASSVESPLPVLEASSWKKQVSHDF is lower in protein stability index: 3.55 for the first, 2.31 for the second.

Going from ASSVESQLPVLEASSWKKQVSHDF to ASSVESRLPVLEASSWKKQVSHDF, the protein stability index falls from 4.86 to 2.7.

Compared with ASSVESSLPVLEASSWKKQVSHDF, ASSVESVLPVLEASSWKKQVSHDF is lower in protein stability index: 3.94 for the first, 2.85 for the second.

Going from ASSVESYLPVLEASSWKKQVSHDF to ASSVESTCPVLEASSWKKQVSHDF, the protein stability index rises from 3.37 to 3.4.

Compared with ASSVESTEPVLEASSWKKQVSHDF, ASSVESTFPVLEASSWKKQVSHDF is lower in protein stability index: 3.38 for the first, 2.52 for the second.

Going from ASSVESTGPVLEASSWKKQVSHDF to ASSVESTHPVLEASSWKKQVSHDF, the protein stability index falls from 3.59 to 2.89.

Going from ASSVESTIPVLEASSWKKQVSHDF to ASSVESTKPVLEASSWKKQVSHDF, the protein stability index rises from 2.82 to 3.22.

First: ASSVESTMPVLEASSWKKQVSHDF
Second: ASSVESTPPVLEASSWKKQVSHDF
The protein stability index of the first is lower: 1.91 for the first, 2.66 for the second.

First: ASSVESTQPVLEASSWKKQVSHDF
Second: ASSVESTRPVLEASSWKKQVSHDF
The protein stability index of the first is lower: 2.04 for the first, 3.05 for the second.

Compared with ASSVESTSPVLEASSWKKQVSHDF, ASSVESTTPVLEASSWKKQVSHDF is lower in protein stability index: 3.57 for the first, 3.38 for the second.

Going from ASSVESTVPVLEASSWKKQVSHDF to ASSVESTYPVLEASSWKKQVSHDF, the protein stability index rises from 1.83 to 2.39.

Compared with ASSVESTLCVLEASSWKKQVSHDF, ASSVESTLDVLEASSWKKQVSHDF is lower in protein stability index: 3.55 for the first, 3.03 for the second.

First: ASSVESTLEVLEASSWKKQVSHDF
Second: ASSVESTLFVLEASSWKKQVSHDF
The protein stability index of the first is lower: 1.96 for the first, 2.12 for the second.

First: ASSVESTLGVLEASSWKKQVSHDF
Second: ASSVESTLHVLEASSWKKQVSHDF
The protein stability index of the first is higher: 1.89 for the first, 1.56 for the second.

First: ASSVESTLIVLEASSWKKQVSHDF
Second: ASSVESTLKVLEASSWKKQVSHDF
The protein stability index of the first is lower: 1.74 for the first, 2.5 for the second.

Compared with ASSVESTLLVLEASSWKKQVSHDF, ASSVESTLMVLEASSWKKQVSHDF is higher in protein stability index: 2.04 for the first, 2.6 for the second.

Going from ASSVESTLNVLEASSWKKQVSHDF to ASSVESTLSVLEASSWKKQVSHDF, the protein stability index falls from 2.51 to 2.28.
